Measurements taken from patent US6906033 (dated 2005).
Where a chain is given by its changes, count along the chain named. Read-outs that look alike come from different tables or passages of the source.

T1: human factor XIIa (human, UniProt P00748 20-615, biotinylated with Biotin Ester (Zymed); sites not stated)
T1 chain: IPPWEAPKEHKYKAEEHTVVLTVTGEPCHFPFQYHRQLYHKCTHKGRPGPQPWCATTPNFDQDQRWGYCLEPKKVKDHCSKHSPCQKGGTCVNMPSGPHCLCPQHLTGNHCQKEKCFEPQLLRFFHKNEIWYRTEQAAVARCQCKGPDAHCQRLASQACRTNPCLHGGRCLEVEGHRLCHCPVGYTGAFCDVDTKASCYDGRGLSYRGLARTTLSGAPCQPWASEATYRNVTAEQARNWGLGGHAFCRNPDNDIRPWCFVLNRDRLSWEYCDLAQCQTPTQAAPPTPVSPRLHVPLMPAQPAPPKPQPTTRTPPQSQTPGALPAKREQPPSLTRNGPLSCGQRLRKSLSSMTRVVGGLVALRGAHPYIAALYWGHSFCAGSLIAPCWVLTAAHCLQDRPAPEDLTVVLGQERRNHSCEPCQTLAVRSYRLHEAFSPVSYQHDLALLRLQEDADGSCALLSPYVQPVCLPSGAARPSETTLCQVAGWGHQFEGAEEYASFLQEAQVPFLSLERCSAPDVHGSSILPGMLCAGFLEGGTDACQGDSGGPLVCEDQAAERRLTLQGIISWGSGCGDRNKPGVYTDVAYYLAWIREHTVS

T2: human factor Xa (human, UniProt P00742 41-179; P00742 235-488)
T2 chain 1: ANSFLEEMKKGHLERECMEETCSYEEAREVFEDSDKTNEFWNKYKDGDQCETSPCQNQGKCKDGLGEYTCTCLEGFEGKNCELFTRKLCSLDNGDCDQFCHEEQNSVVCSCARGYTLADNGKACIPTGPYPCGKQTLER
T2 chain 2: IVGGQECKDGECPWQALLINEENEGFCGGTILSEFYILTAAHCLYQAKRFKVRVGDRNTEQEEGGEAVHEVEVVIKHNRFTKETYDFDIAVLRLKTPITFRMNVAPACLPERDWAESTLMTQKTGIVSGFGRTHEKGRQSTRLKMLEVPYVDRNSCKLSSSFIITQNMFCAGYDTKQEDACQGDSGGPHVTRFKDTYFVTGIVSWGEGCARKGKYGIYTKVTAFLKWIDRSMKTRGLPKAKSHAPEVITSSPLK

B1: TW6188 (protein)
chain: EVVREVCSEQAETGPCRAMIYRWYFDVTEGKCAPFFYGGCYGNRNNFDTEEYCMAVCGSAI
B2: TW6186 (protein)
chain: B1 chain with I20H, Y21S
B3: TW6185 (peptide)
chain: B1 chain with I20H, Y21W, Y41G
B4: TW6187 (protein)
chain: B1 chain with Y21F
B5: DD185 (peptide)
chain: B1 chain with M19A, Y21F, Y41G
B6: wild-type KPI (-4→57) (peptide)
chain: LDKREVVREVCSEQAETGPCRAMISRWYFDVTEGKCAPFFYGGCGGNRNNFDTEEYCMAVCGSAI
B7: KPI (-4-57) (peptide)
chain: B6 chain

Experiments:
Assay in all cases: enzyme inhibition
[1] = biological target: T1, human factor XIIa
[2] = biological target: T3, human plasma kallikrein (human, UniProt P03952 20-638)
T3 sequence (P03952 20-638): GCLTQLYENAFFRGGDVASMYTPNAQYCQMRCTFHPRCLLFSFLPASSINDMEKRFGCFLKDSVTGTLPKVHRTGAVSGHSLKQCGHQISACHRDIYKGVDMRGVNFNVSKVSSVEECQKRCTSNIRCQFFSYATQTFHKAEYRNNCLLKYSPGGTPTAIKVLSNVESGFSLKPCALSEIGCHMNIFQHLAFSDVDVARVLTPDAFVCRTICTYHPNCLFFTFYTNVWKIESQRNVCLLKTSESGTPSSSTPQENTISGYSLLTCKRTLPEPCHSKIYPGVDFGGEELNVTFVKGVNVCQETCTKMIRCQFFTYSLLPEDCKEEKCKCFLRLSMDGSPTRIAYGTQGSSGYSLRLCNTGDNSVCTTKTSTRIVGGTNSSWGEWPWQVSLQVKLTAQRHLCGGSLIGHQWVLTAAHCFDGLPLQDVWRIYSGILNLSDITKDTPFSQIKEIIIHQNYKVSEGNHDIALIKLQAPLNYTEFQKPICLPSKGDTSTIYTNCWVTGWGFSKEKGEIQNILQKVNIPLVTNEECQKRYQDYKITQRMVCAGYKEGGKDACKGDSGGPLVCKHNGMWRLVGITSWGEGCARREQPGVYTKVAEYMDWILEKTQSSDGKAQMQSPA

[3] = biological target: T2, human factor Xa
[4] = biological target: Plasmin
[5] = biological target: Plasmin; remark: listed apart in the source
[6] = biological target: T3, human plasma kallikrein; remark: listed apart in the source
[7] = biological target: T1, human factor XIIa
[8] = biological target: T3, human plasma kallikrein; remark: listed apart in the source
[9] = biological target: T2, human factor Xa
[10] = biological target: Plasmin; remark: listed apart in the source

Binder	Ki [1]	Ki [2]	Ki [3]	also measured
B1	419 nM	4 nM	24 nM	–
B2	186 nM	0.48 nM	11 nM	–
B3	–	–	–	Ki [4]: 18.6 nM
B4	92 nM	3.8 nM	15 nM	–
B5	–	–	–	Ki [5]: 8.71 nM
B6	–	–	–	Ki [6]: 45 nM; Ki [7]: 3720 nM; Ki [8]: 45 nM; Ki [9]: 161 nM
B7	–	–	–	Ki [10]: 34 nM
